From the supplement of paper PMC12042874 come the findings set out here.

± gives the uncertainty stated by the source.

The nature of this series: amyloid nucleation score (Sup35N fusion, yeast selection) (log enrichment); library NNK2; higher = more nucleation; inactive = no reads after selection. In short, it runs like this: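 Psi-negative yeast expressed Sup35N fused to peptides of 20 random codons. They were induced 24 hours with 100 μM copper sulfate, grown 7 days at 30°C without adenine and uracil, and their plasmid inserts from input and output were Illumina-sequenced. The nucleation score is the DiMSum log enrichment of output over input reads, centred on the mode score of non-aggregating sequences. Sequences with under 100 input reads were excluded.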
Consider GVVHKDELRGLKVRESSEMG, for which the amyloid nucleation score is 0.271 ± 0.48.

IDSFDPGFRRHLDRSWIRRH returned an amyloid nucleation score of 0.105 ± 1.1. RRVGRYESWRNFSNEI: the amyloid nucleation score was -0.835 ± 0.27. The result for AKFMGLCRDKGLQLC reads -0.331 ± 0.55; that for HLVMCMARVGTTVNLMSHQT, 6.304 ± 0.057; that for VLFEFTC, 4.33 ± 0.05. The substance FAMDSIKRFFKIIIFSRYT showed an amyloid nucleation score of -1.34 ± 1.1. The result for WDGNYSSKVCFTQLRMSWCL reads 1.75 ± 0.27; that for SFPAGICPLMRLVYVNMGVG, -0.683 ± 1.1; that for TCVCWGPCRSV, -0.895 ± 1.

TTTQKGCGVYVAREVSWGLG: the amyloid nucleation score was 2.56 ± 0.093.

The substance GFVTDFIIKSI came in with an amyloid nucleation score of -1.07 ± 0.64.

For the substance GYLVRM, the amyloid nucleation score is -0.186 ± 0.3. As for YSVLTLED, the amyloid nucleation score was determined as 0.374 ± 0.29. The substance SSKSHLSLLK returned an amyloid nucleation score of -0.849 ± 0.4.

For the substance CQAYSSIRFEVL, the amyloid nucleation score entry was “inactive”. The substance CRHYRRYLLNLQVGWMR gave an amyloid nucleation score of 0.978 ± 0.27. Next, NRRFSSGSVSSLKFLRSVWA: -0.428 ± 0.61; DNGNWVCWLHVLGQGSHRKA: “inactive”.

As for VLSHYIRLHKSLDLSYSNGV, the amyloid nucleation score was -0.817 ± 0.61. On to IEGYYGASRVRGMSMGLLWV, for which the amyloid nucleation score is -0.17 ± 0.79.

LDKAIHSWGVLDWAVKQDNA displayed an amyloid nucleation score of 0.293 ± 0.26. Turning to CNCVARYGEVKEGIHVAFDY, the amyloid nucleation score is -0.529 ± 0.76. The result for RGYVRLSHTGTTRHHP reads “inactive”; that for LLLNLMLVHTSMTFVRIKLR, 3.13 ± 0.12; that for SVYDPAYVLNMNTLSTSSNL, 0.451 ± 0.33. The result for VLFSRFDSVWHVAIAVSARV reads 0.671 ± 0.42. The result for KYIYVYNSIGVP reads -0.277 ± 1; that for VTNVSQISNSRNVMERSIMF, -1.2 ± 0.41; that for LVKGRAAERCNFLSWVKSVQ, -0.533 ± 0.3. For the substance DFSFVANCSDYLLNILFKGE, the amyloid nucleation score was -0.066 ± 0.74. The result for GVSASQSTMLNCDNVTEDVS reads 0.753 ± 0.22; that for SRWLGAKCSSRC, -0.361 ± 0.48. Next, DISVRTMFVS: -0.392 ± 0.48.

In turn, NHRAIYF returned an amyloid nucleation score of 0.205 ± 0.77. The result for SGERRTGCPEAAS reads 0.075 ± 0.34; that for FEFMNDFQSYVRMFRCLVFL, -0.401 ± 0.43. The result for IMVVYETSVAGPRTSRGYCL reads 4.729 ± 0.041; that for SNYVSTHRIWFGYSWCKQEK, 4.24 ± 0.13.

In turn, NNMKVDAVVYIATKPGHWDQ registered an amyloid nucleation score of 7.589 ± 0.034. SFYVIRVGSLPFRS gave an amyloid nucleation score of 3.25 ± 0.075.

On to YYLGWIMLVHYGSWTTCLVR, for which the amyloid nucleation score is 0.531 ± 0.64.

Substance IFFLPVTCTWGTQWRL yielded an amyloid nucleation score of 1.56 ± 0.15. Next, CHTTMPGIVCKLGTYARGEG: 6.638 ± 0.066; SNAVNCLLCVLTRDLIWMDA: 8.958 ± 0.067. The result for NFLMV reads 0.75 ± 0.47.

In turn, SLLHPFLTVGVCMCRYGVNI gave an amyloid nucleation score of 1.81 ± 0.083.

Take LESVWHILGGFGIMVFYITK: the amyloid nucleation score result was “inactive”. Regarding MFSMGEAAAL, the amyloid nucleation score came to 0.305 ± 0.3. On to TWFCVGKVASSMWVYQGVNF, for which the amyloid nucleation score worked out at 0.662 ± 0.52. As for VVSFSVRSIPCSRVSFMAFS, the amyloid nucleation score was -0.304 ± 0.54. Next, LYDMTCRSSVKGNV: -1.19 ± 0.75; YMHILLLRFVQILTIRIVLL: -0.85 ± 0.37. In the case of FRGTCYMAIVDYLCNTFEGP, the amyloid nucleation score was determined as 1.37 ± 0.11. VCNRPI: the amyloid nucleation score was -0.78 ± 0.26. Consider MKIYARIMSFLWATVKCVGY, for which the amyloid nucleation score result is “inactive”. RFGVSVTGDTSRCSGCGGAH: the amyloid nucleation score stood at 4.01 ± 0.089. In turn, GGPCDRGTFMMCDPWSFSLL gave an amyloid nucleation score of 0.513 ± 0.39. The result for LFYGNWPVFKGVLFCAVLVG reads 0.092 ± 0.79; that for YYTLWVTLTRLTNC, -0.288 ± 0.5; that for VGGWGWGHCPQRRQHVSLPV, 0.825 ± 0.53. On to LILALVPLLCWMVNGW, for which the amyloid nucleation score is -0.567 ± 1.1. Next, RVYLFFYAYHHVICANSSYK: -1.11 ± 0.56; LGVCICPCRAPEMKDTSHDA: 4.92 ± 0.076; PSLLFFSCV: -0.366 ± 0.56. The result for HQMRFPGSPMATVGSLRTCR reads -0.528 ± 0.42. Next, QVFRFSYKCPCHAVG: 1.75 ± 0.15. MASVMLQCHGCPLGKGTARA: the amyloid nucleation score is 0.879 ± 0.41. As for LRCFSHRPCPKNNIVF, the amyloid nucleation score stood at 0.602 ± 0.81. LFPFRASRGPVPYKRDQ: the amyloid nucleation score was found to be 1.89 ± 0.52. The result for TCLSQQCTEIEWIKFTPMSR reads 4.31 ± 0.056.

As to FNWVEWLFFSMAFKLLVESR, the amyloid nucleation score entry is “inactive”. The result for TDCMPMHVYGDYYLMGMSRE reads -0.555 ± 0.33; that for YCGGFGGFWVEYWWDKYPTC, -0.171 ± 0.23; that for IYTNSISACDDVVGKNRVFA, -1.3 ± 1.1.

Turning to GLGAWFEI, the amyloid nucleation score came out at 0.485 ± 0.29. Next, DIKAWLFVRSDIVDGGFADT: -0.405 ± 0.29. The result for WHLCFISHTLRGMRTLWSIR reads -0.829 ± 1.1; that for GTCCARAIGRYGYFNCRHRM, -0.017 ± 0.34; that for CIVAFEFLYWCRRIAFNPGG, -0.475 ± 0.31.

For the substance SRIMALTMCFYTNRGRELVN, the amyloid nucleation score was -1.19 ± 0.38. Substance VSLMKYQVELGNWKEPTCLG had an amyloid nucleation score of 0.14 ± 0.56. The result for LNRISYHTYSILPNVTIMKS reads 0.498 ± 0.54; that for CSAITEGCKGFVHDVSGVML, -0.27 ± 0.56. The result for RIMIEFWPRFSWSI reads 0.744 ± 0.14; that for LCNSYYFFDSCVIEPYIPLL, 5.646 ± 0.054; that for HSNALCLRFVLLPLSGIDIM, -0.295 ± 0.54. Next, AISILNCSMMLRIWPSTAAL: 0.059 ± 0.5; LTGTMVMIVNPLDCVLGVER: 5.01 ± 0.085. Take RYNDAFSVCRMDEITAWIWC: the amyloid nucleation score was determined as 2.67 ± 0.085. Next, VNVIFHEYNVDAG: 4.02 ± 0.12; WFAKRW: “inactive”. Substance AADKAICPVGGNTGHRSLGS gave an amyloid nucleation score of 0.691 ± 0.35. For ILLGYIISR, the amyloid nucleation score is -0.636 ± 0.79. Turning to VWVCSRTGQSQYIISYTALW, the amyloid nucleation score turned out to be 1.65 ± 0.2. As for TIFMAYTWLNYTVAFLSNVR, the amyloid nucleation score is -1.01 ± 0.61. In turn, GHFAF came in with an amyloid nucleation score of -0.159 ± 1.1. Take NYQGI: the amyloid nucleation score was -0.874 ± 0.56. In turn, FYHRGMMWMYKWGMARYRVC registered an amyloid nucleation score of 0.044 ± 0.44. Next, SHTDYHRFAWMF: -1.74 ± 0.53; WYAAGLKNR: -0.418 ± 1; HYAANVVRISYCGGHSRANF: 5.1 ± 0.077. VRTWESIVCCI: the amyloid nucleation score stood at 4.14 ± 0.051. In turn, ASSMILL came in with an amyloid nucleation score of -1.18 ± 0.64.

CRCTSIRGLKCIRW registered an amyloid nucleation score of 0.767 ± 0.15. Next, DLYWSMLLYVMSRVYE: 0.249 ± 0.64; LYVYGGSLNPGLVMFVPCWK: -0.774 ± 0.76; PCSANWRLYIANISGSFPMR: 5.34 ± 0.083. ASDVSRVGVGRKMIFSFVRL returned an amyloid nucleation score of -0.031 ± 1. In turn, IPMSRGVQF yielded an amyloid nucleation score of 0.82 ± 0.14. Next, SKVLNGFYIWYHQVPQLYPL: -1.19 ± 1; WLNYLGFISFRICH: -1.66 ± 0.41; DRNMRNLEIISVH: -0.091 ± 0.23. SRFCVRRLTVYRRSV registered an amyloid nucleation score of 0.43 ± 0.45. With TTQDHFFSL, the amyloid nucleation score entry was “inactive”. With KKSHFLKRYNTAYVGRHLVH, the amyloid nucleation score is -0.07 ± 0.53. Next, SYCYWMFSVLGGSSASEFRY: “inactive”; YVLKLRRSRQSLSHRPALLY: “inactive”. The result for IYYACL reads 6.401 ± 0.054. Next, PQGDSMTVCFQLVT: 1.28 ± 0.61; LYCSSLFKVYRGVQTRAKLR: “inactive”. Substance SDRFMIVVDWVILVVLCMT had an amyloid nucleation score of -0.611 ± 0.39. Regarding KLIYLGGSSEFGTHFSA, the amyloid nucleation score is -0.429 ± 0.61. Next, LWLKEVYRWMIGGTRYL: -0.618 ± 0.76. The result for LSHLFSV reads -0.381 ± 1.1. The result for NDWSHRSIFMMVCFWGVHSH reads “inactive”; that for LALSRYFGL, -0.909 ± 0.54. Turning to HTDCYLWLKLYSTLGILFVF, the amyloid nucleation score result is “inactive”. The result for IRECLVRSATSFLLDHKRRC reads -0.383 ± 1; that for IVNCCSYLYTRIHNVGPAGN, 6.383 ± 0.063.

For CNMFDCCK, the amyloid nucleation score is 0.175 ± 0.42. For CECVFFVQGVLRVGVLYDKF, the amyloid nucleation score result is “inactive”.

Turning to VTNCNPDRW, the amyloid nucleation score was -0.149 ± 0.63. In turn, GKMGYFEWGVLDYIVRLSGT returned an amyloid nucleation score of 0.851 ± 0.27. Next, SVEMRTNLTAGWRILIRWSS: 1.2 ± 0.14; LYEYHHGFVCQRVCGAIVGR: 1.23 ± 0.43; STMLWLCFFMGKLSVDTVFE: -0.6 ± 0.53.

In the case of KDSITAWCFVVLSVMTRVEY, the amyloid nucleation score is -0.733 ± 1.1. For the substance TCYWRGLAGYR, the amyloid nucleation score was 3.28 ± 0.14.
